Data taken from the supplement of paper PMC10567573.

B1: KRT34 (parent)
chain: PTVDLNQVLNETRSQYEALVETNR
B2: MYBL2 (parent)
chain: FSPSQFLNFWNKQDTLELESPSLT

Variants of: B1
Assay: protein stability index of a GFP-peptide fusion (GPS, HEK-293T) (PSI 1-6); higher = more stable
Settings: c terminus: a fixed tail appended
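Note: lentivirally expressed fusions sorted by FACS into six bins by GFP to DsRed ratio, PSI derived from sequencing read proportions per bin multiplied by bin number.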

Variant	protein stability index
PTVDLNQVLNETRSQYEALVETRR [N23R]	4.11
PTVDLNQVLNETRSQYEALVETVR [N23V]	3
PTVDLNQVLNETRSQYEALVETWR [N23W]	2.53
PTVDLNQVLNETRSQYEALVETSR [N23S]	4.39
PTVDLNQVLNETRSQYEALVETQR [N23Q]	4.52
PTVDLNQVLNETRSQYEALVETYR [N23Y]	3.52
PTVDLNQVLNETRSQYEALVETTR [N23T]	3.99
PTVDLNQVLNETRSQYEALVETNA [R24A]	3.51
PTVDLNQVLNETRSQYEALVETNT [R24T]	3.8
PTVDLNQVLNETRSQYEALVETNN [R24N]	4.74
PTVDLNQVLNETRSQYEALVETNV [R24V]	2.17
PTVDLNQVLNETRSQYEALVETNP [R24P]	4.58
PTVDLNQVLNETRSQYEALVETNW [R24W]	3.55
PTVDLNQVLNETRSQYEALVETNL [R24L]	2.68
PTVDLNQVLNETRSQYEALVETNQ [R24Q]	4.18
PTVDLNQVLNETRSQYEALVETNM [R24M]	2.51
PTVDLNQVLNETRSQYEALVETND [R24D]	4.95
PTVDLNQVLNETRSQYEALVETNE [R24E]	3.88
PTVDLNQVLNETRSQYEALVETNH [R24H]	4.08
PTVDLNQVLNETRSQYEALVETNY [R24Y]	2.29
PTVDLNQVLNETRSQYEALVETNC [R24C]	2.56
PTVDLNQVLNETRSQYEALVETNS [R24S]	4.81
PTVDLNQVLNETRSQYEALVETNI [R24I]	3.11
PTVDLNQVLNETRSQYEALVETNK [R24K]	4.32
PTVDLNQVLNETRSQYEALVETNG [R24G]	4.17
PTVDLNQVLNETRSQYEALVETNF [R24F]	2.5

Variants of: B2
Assay: as above
Settings: c terminus: a fixed tail appended

Variant	protein stability index
NSPSQFLNFWNKQDTLELESPSLT [F1N]	3.3
GSPSQFLNFWNKQDTLELESPSLT [F1G]	2.83
ISPSQFLNFWNKQDTLELESPSLT [F1I]	3
ASPSQFLNFWNKQDTLELESPSLT [F1A]	3.77
SSPSQFLNFWNKQDTLELESPSLT [F1S]	4.11
YSPSQFLNFWNKQDTLELESPSLT [F1Y]	4.39
WSPSQFLNFWNKQDTLELESPSLT [F1W]	2.73
VSPSQFLNFWNKQDTLELESPSLT [F1V]	3.72
HSPSQFLNFWNKQDTLELESPSLT [F1H]	2.13
DSPSQFLNFWNKQDTLELESPSLT [F1D]	4.27
MSPSQFLNFWNKQDTLELESPSLT [F1M]	3.3
QSPSQFLNFWNKQDTLELESPSLT [F1Q]	3.74
ESPSQFLNFWNKQDTLELESPSLT [F1E]	4.58
KSPSQFLNFWNKQDTLELESPSLT [F1K]	3.75
TSPSQFLNFWNKQDTLELESPSLT [F1T]	3.75
PSPSQFLNFWNKQDTLELESPSLT [F1P]	4.2
LSPSQFLNFWNKQDTLELESPSLT [F1L]	3.51
RSPSQFLNFWNKQDTLELESPSLT [F1R]	3.06
CSPSQFLNFWNKQDTLELESPSLT [F1C]	2.62
FSFSQFLNFWNKQDTLELESPSLT [P3F]	3.08
FSRSQFLNFWNKQDTLELESPSLT [P3R]	2.39
FSESQFLNFWNKQDTLELESPSLT [P3E]	1.6
FSVSQFLNFWNKQDTLELESPSLT [P3V]	1.77

Variant	protein stability index
FSWSQFLNFWNKQDTLELESPSLT [P3W]	2.18
FSKSQFLNFWNKQDTLELESPSLT [P3K]	2.02
FSASQFLNFWNKQDTLELESPSLT [P3A]	3.83
FSISQFLNFWNKQDTLELESPSLT [P3I]	3.19
FSLSQFLNFWNKQDTLELESPSLT [P3L]	2.69
FSHSQFLNFWNKQDTLELESPSLT [P3H]	1.94
FSDSQFLNFWNKQDTLELESPSLT [P3D]	3.71
FSGSQFLNFWNKQDTLELESPSLT [P3G]	2.41
FSTSQFLNFWNKQDTLELESPSLT [P3T]	2.94
FSYSQFLNFWNKQDTLELESPSLT [P3Y]	3.74
FSQSQFLNFWNKQDTLELESPSLT [P3Q]	3.52
FSNSQFLNFWNKQDTLELESPSLT [P3N]	2.38
FSSSQFLNFWNKQDTLELESPSLT [P3S]	2.18
FSMSQFLNFWNKQDTLELESPSLT [P3M]	2.3
FSPPQFLNFWNKQDTLELESPSLT [S4P]	2.14
FSPNQFLNFWNKQDTLELESPSLT [S4N]	3.63
FSPMQFLNFWNKQDTLELESPSLT [S4M]	3.27
FSPCQFLNFWNKQDTLELESPSLT [S4C]	2.91
FSPIQFLNFWNKQDTLELESPSLT [S4I]	4.06
FSPKQFLNFWNKQDTLELESPSLT [S4K]	2.53
FSPEQFLNFWNKQDTLELESPSLT [S4E]	2
FSPDQFLNFWNKQDTLELESPSLT [S4D]	1.79
FSPAQFLNFWNKQDTLELESPSLT [S4A]	2.14

Variant	protein stability index
FSPFQFLNFWNKQDTLELESPSLT [S4F]	3.04
FSPHQFLNFWNKQDTLELESPSLT [S4H]	2
FSPGQFLNFWNKQDTLELESPSLT [S4G]	4.19
FSPLQFLNFWNKQDTLELESPSLT [S4L]	2.12
FIPSQFLNFWNKQDTLELESPSLT [S2I]	3.87
FMPSQFLNFWNKQDTLELESPSLT [S2M]	3.62
FKPSQFLNFWNKQDTLELESPSLT [S2K]	1.99
FEPSQFLNFWNKQDTLELESPSLT [S2E]	2.08
FPPSQFLNFWNKQDTLELESPSLT [S2P]	2.13
FVPSQFLNFWNKQDTLELESPSLT [S2V]	3.06
FFPSQFLNFWNKQDTLELESPSLT [S2F]	2.14
FAPSQFLNFWNKQDTLELESPSLT [S2A]	2.65
FHPSQFLNFWNKQDTLELESPSLT [S2H]	3.45
FDPSQFLNFWNKQDTLELESPSLT [S2D]	1.92
FTPSQFLNFWNKQDTLELESPSLT [S2T]	3
FRPSQFLNFWNKQDTLELESPSLT [S2R]	2.26
FLPSQFLNFWNKQDTLELESPSLT [S2L]	2.79
FNPSQFLNFWNKQDTLELESPSLT [S2N]	2.38
FCPSQFLNFWNKQDTLELESPSLT [S2C]	2.66
FYPSQFLNFWNKQDTLELESPSLT [S2Y]	1.63
FWPSQFLNFWNKQDTLELESPSLT [S2W]	2.98
FQPSQFLNFWNKQDTLELESPSLT [S2Q]	2.71
